Literature values, collected in article PMC4364296.
Values joined by “and” are separate entries in the source; they are usually repeats but may differ in a detail not shown here. Equal values may be shown once. Read-outs that look alike come from different tables or passages of the source.

Tests used:
ZipA (Escherichia coli) [1] = target: ZipA (Escherichia coli) (UniProt P77173)
ZipA (Escherichia coli) [2] = target: ZipA (Escherichia coli) (UniProt P77173); remark: listed apart in the source

FtsZ, sequence (P0A9A6 whole entry): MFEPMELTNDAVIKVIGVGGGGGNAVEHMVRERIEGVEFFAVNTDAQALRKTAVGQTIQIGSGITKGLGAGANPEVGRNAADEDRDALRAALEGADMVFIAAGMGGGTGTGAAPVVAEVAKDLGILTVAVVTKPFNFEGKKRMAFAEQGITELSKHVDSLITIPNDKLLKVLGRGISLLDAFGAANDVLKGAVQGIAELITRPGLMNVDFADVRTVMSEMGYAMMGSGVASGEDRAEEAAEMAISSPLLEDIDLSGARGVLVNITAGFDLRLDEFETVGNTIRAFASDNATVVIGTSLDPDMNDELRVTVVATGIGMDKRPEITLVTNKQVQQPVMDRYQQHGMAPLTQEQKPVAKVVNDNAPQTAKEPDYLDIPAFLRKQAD

| Kd (ZipA (Escherichia coli) [2]) | Substance | Kd (ZipA (Escherichia coli) [1]) [µM] |
| --- | --- | --- |
|  | FtsZ (from UniProt P0A9A6) | 40 |
| 35 µM and 21.6 µM | FtsZ CCTP peptide CCTP (from UniProt P0A9A6) |  |
